Data published in the supplement of paper PMC10567573.

B1: ADAMTS4 (parent)
chain: SFRKFRYGYNNVVTIPAGATHILV
B2: PRPH (parent)
chain: RTFGPPPSLSPGAFSYSSSSRFSS

Variants of: B1
Assay: protein stability index of a GFP-peptide fusion (GPS, HEK-293T) (PSI 1-6); higher = more stable
Details: c terminus: a fixed tail appended
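Further: lentivirally expressed fusions sorted by FACS into six bins by GFP to DsRed ratio, PSI derived from sequencing read proportions per bin multiplied by bin number.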

Protein stability index: each site, then its substitutions
N11: Q 1.56; D 2.92; C 2.42; W 1.9; E 2.07; H 3.34; P 2.59; S 2.94; R 1.57; I 2.04; A 3.51; F 1.71; K 1.61; Y 1.19; M 2.27; G 2.89; V 2.57; L 1.53; T 2.59
L23: Y 2.41; H 2.91; R 1.84; N 1.75; I 3.28; K 2; V 2; P 2.29; G 2.1; S 2.52; C 2.19; A 2.4; W 2.15; M 2.43; T 3.08; D 1.78; Q 1.37; E 1.32; F 2.76
N10: L 4.32; M 2.49; Y 2.02; T 2.18; K 1.81; P 1.86; W 1.6; S 1.99; V 1.81; Q 1.94; R 2.36
V24: L 2.35; S 1.68; I 2; Q 1.75; D 1.93; Y 2.57; A 1.52; K 1.7; N 1.66; P 1.64; W 1.94; E 2.34; F 3.25; C 2.39; M 2.12; R 1.34; G 1.81; H 1.73; T 1.44
A17: C 2.36; V 1.24; R 2; T 1.97; Y 1.6; M 1.51; Q 1.33; H 1.78; K 1.57; G 1.95; I 1.86; F 1.96; D 1.64; N 1.78; L 2.31; E 1.61; P 1.98; S 1.78; W 2.46
H21: Y 3.3; M 2.12; D 1.66; I 2.4; E 3.28; Q 2.85; K 2.59; G 2.48; R 2.32; C 2.43; F 3.18; S 2.3; V 2.02; T 3.43; P 1.28; N 2.65; A 1.3
T20: V 2.55; N 1.85; W 2.38; G 1.49; L 2.9; H 1.63; M 2.51; P 3.21; Y 1.69; I 2.77; E 2.56; Q 2.19; F 3.2; C 2.86; D 1.54; A 2.32; K 2.24
T14: F 2.74; W 3.53; C 1.81; S 2.65; M 3; E 2.79; P 1.6; Y 2.27; K 3.9; H 2.92; I 2.36; G 1.33; D 3.24; N 3.6; V 2.61; L 2.38; A 1.42; R 1.93; Q 2.2
I22: P 2.59; G 1.93; E 2.53; W 1.83; Q 2.31; S 2.36; N 1.83; A 1.74; D 2.24; M 1.9; K 2.37; V 1.79; R 1.88; L 2.51; Y 1.92; F 2.58; C 2.42; T 1.97; H 1.8
P16: A 2.65; V 1.87; F 2.57; S 2.5; M 2.59; Y 2.49; W 2.05; I 2.63; T 1.36; H 2.4; E 2.83; D 3.51; G 2.36; L 1.81; R 1.76; Q 2.25; K 2.19; C 2.46
V13: L 3.1; W 3.05; M 1.9; Q 1.8; E 2.73; R 3.77; A 3.18; K 1.97; P 2.12; Y 1.49; G 2.1; H 1.74; N 2.04; C 2.92; F 2.6; I 2.07; S 1.82; D 2.74; T 2.11
I15: C 2.03; Q 1.4; R 1.44; H 2.01; W 1.86; L 2.3; N 1.57; P 1.52; T 2.26; G 1.4; E 2.16; S 2.48; F 1.55; M 2.28; A 2.17; V 1.5; D 2.35; K 2.41; Y 2.11
A19: F 3.91; L 3.23; T 1.36; C 2.13; W 2.72; V 1.84; R 2.67; H 1.96; N 2.17; P 2.17; K 3; E 3.97; Y 3.44; D 3.22; G 1.22; Q 1.88
V12: F 1.71; N 1.87; H 2.33; W 2.09; R 1.7; C 2.95; Y 2.88; E 2.4; I 3.16; T 3.03; P 2.13; S 2.08; K 2.34; G 3.44; L 2.58; D 3.98; M 2.29; A 2.25; Q 1.26
G18: F 2.3; L 2; A 1.72; W 1.9; K 2.41; P 2.06; D 2.71; Q 2.88; I 1.62; N 1.27; C 1.73; H 1.71; V 1.63; Y 1.64; M 1.54; S 2.58; R 1.85; E 2.63; T 2.71

Variants of: B2
Assay: as above
Details: c terminus: a fixed tail appended

Protein stability index of substitutions, site by site:
R1: Y 2.4; F 2.52; V 1.97; N 3.7; W 2.81; A 3.18; H 3.24; Q 3.62; M 2.29; I 2.41; T 2.63; D 3.29; G 3.25; E 3.09; C 2.59; K 2.74; S 3.01
G4: E 3.43; S 3.21; K 2.26; C 2.9; M 3.08; N 3.12; L 2.42; W 2.22; H 3.2; R 3.1; V 2.37; D 3.36; F 3.06; Q 3.26; I 2.55
F3: G 3.13; C 2.82; T 3.54; Y 3.16; W 3.19; I 3.46; M 3.75; V 3.31; S 3.6; K 3.38; R 3.41; N 3.38; A 3.33; L 4.11; D 4.09; E 3.72
T2: F 2.46; G 2.89; I 2.97; A 2.95; C 2.02; N 2.92; P 3.08; V 2.23; K 2.49; S 3.73; M 2.52; Q 2.92; Y 2.31; D 3.21; L 2.43; H 3.17
P5: A 2.76
